Measurements reported in publication PMC10760395 (2023).
Where a chain is given by its changes, count along the chain named. Names and notes keep the numbering of the source. Values joined by “and” are separate entries in the source; they are usually repeats but may differ in a detail not shown here. Identical values can stand only once. Each block holds one binder with its values, some of them ahead of it.

Target: T1, endothelin B receptor (ETB) (UniProt P24530 27-442)
T1 chain: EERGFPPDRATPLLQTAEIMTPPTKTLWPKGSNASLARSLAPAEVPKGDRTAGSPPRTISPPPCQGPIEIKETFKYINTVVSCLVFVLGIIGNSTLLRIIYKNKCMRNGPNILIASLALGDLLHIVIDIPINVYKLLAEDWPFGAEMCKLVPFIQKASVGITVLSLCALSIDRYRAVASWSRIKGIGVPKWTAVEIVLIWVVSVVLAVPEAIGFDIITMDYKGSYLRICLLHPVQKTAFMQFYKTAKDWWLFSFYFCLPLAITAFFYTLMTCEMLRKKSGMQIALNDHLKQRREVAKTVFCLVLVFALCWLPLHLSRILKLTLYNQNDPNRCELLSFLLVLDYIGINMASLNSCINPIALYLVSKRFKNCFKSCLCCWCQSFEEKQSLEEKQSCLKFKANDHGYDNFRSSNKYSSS
Assay: FACS

Kd: 6 nM
B1: xiRB49-P125T (antibody, V domains shown)
VH: QVQLQQPGAALVKPGASVKLSCKASGYTFISYWMLWVKQRPGRGLEWIGRIDPDSGGTKYNEKFKSKATLTVDKSSSTAYMQLSSLTSEDSAVYYCAREGDYAWFAYWGQGTLVTVSA
VL: DVLMTQTPLSLPVSLGDQASISCRSSQSIVHSNGNTYLEWYLQKPGQSPKLLIYKVSNRFSGVPDRFSGSGSGTDFTLKISRVEAEDLGVYYCFQGSHVPWTFGGGTKLEIK

Kd: 3.04 nM
B2: recombinant RB49 (reRB49) (antibody, V domains shown)
VH: B1 VH with T115P
VL: B1 VL

Kd: 4.19 nM and 3.5 nM
B3: Rendomab B49 (RB49), murine mAb purified from hybridoma (antibody, V domains shown)
VH: B1 VH with T115P
VL: B1 VL
